# B1: 5T4 9-mer peptide 161 (LTCAYPEKM) (peptide)
# peptide: LTCAYPEKM
# B2: 5T4 9-mer peptide 143 (PHIRVFLDN) (peptide)
# peptide: PHIRVFLDN
# B3: 5T4 9-mer peptide 170 (SADLDCDPI) (peptide)
# peptide: SADLDCDPI
# B4: 5T4 9-mer peptide 155 (LKETEVVQG) (peptide)
# peptide: LKETEVVQG
# B5: 5T4 9-mer peptide 138 (NGTLAELQG) (peptide)
# peptide: NGTLAELQG
# B6: 5T4 9-mer peptide 134 (DNALKVLHN) (peptide)
# peptide: DNALKVLHN
# B7: 5T4 9-mer peptide 152 (ADMVTWLKE) (peptide)
# peptide: ADMVTWLKE
# B8: 5T4 9-mer peptide 147 (NNPWVCDCH) (peptide)
# peptide: NNPWVCDCH
# B9: 5T4 9-mer peptide 159 (GKDRLTCAY) (peptide)
# peptide: GKDRLTCAY
# B10: 5T4 9-mer peptide 165 (MRNRVLLEL) (peptide)
# peptide: MRNRVLLEL
# B11: 5T4 9-mer peptide 144 (IRVFLDNNP) (peptide)
# peptide: IRVFLDNNP
# B12: 5T4 9-mer peptide 148 (PWVCDCHMA) (peptide)
# peptide: PWVCDCHMA
# B13: 5T4 9-mer peptide 130 (HLESLHLED) (peptide)
# peptide: HLESLHLED
# B14: 5T4 9-mer peptide 160 (DRLTCAYPE) (peptide)
# peptide: DRLTCAYPE
# B15: 5T4 9-mer peptide 169 (LNSADLDCD) (peptide)
# peptide: LNSADLDCD
# B16: 5T4 9-mer peptide 156 (ETEVVQGKD) (peptide)
# peptide: ETEVVQGKD
# B17: 5T4 9-mer peptide 140 (AELQGLPHI) (peptide)
# peptide: AELQGLPHI
# Target: T1, MHC class I molecule A*0101 (biotin (bound to streptavidin-coated plate))
# T1 construct: iTopia monomer stripped of placeholder peptide and b2M, then reconstituted with test peptide and fresh b2M; also called A1; HLA-A1
# Assay: iTopia peptide binding assay
# Experimental: (§1) The 9 mers were tested for Peptide Binding, Off Rate and Affinity using iTopia Epitope Discovery System in accordance with the manufacturer's instructions. Briefly, 96 well microtitre plates coated with MHC molecules representing different MHC alleles are used to identify candidate peptides. […] Determinations are performed in duplicate using an ELISA plate reader and included allele specific positive controls.
# (§2) i) Peptide Binding—This assay measures the ability of individual peptides to bind to the MHC molecules under standardized optimal binding conditions. The assay is performed for all the test peptides across the selected MHC alleles. The test peptides identified as “binders” are characterized further in terms of affinity and dissociation experiments.
row,Binder,"binding, % of positive control peptide"
1,B1,16 % of positive control
2,B2,0 % of positive control
3,B3,0 % of positive control
4,B4,0 % of positive control
5,B5,3 % of positive control
6,B6,1 % of positive control
7,B7,0 % of positive control
8,B8,0 % of positive control
9,B9,3 % of positive control
10,B10,0 % of positive control
11,B11,0 % of positive control
12,B12,0 % of positive control
13,B13,4 % of positive control
14,B14,0 % of positive control
15,B15,0 % of positive control
16,B16,0 % of positive control
17,B17,0 % of positive control

# Target: T2, MHC class I molecule A*0201 (biotin (bound to streptavidin-coated plate))
# T2 construct: iTopia monomer stripped of placeholder peptide and b2M, then reconstituted with test peptide and fresh b2M; also called A2; HLA-A2
# Assay: iTopia peptide binding assay
# Experimental: as §1, §2
row,Binder,"binding, % of positive control peptide"
1,B1,40 % of positive control
2,B2,2 % of positive control
3,B3,4 % of positive control
4,B4,3 % of positive control
5,B5,9 % of positive control
6,B6,5 % of positive control
7,B7,6 % of positive control
8,B8,0 % of positive control
9,B9,6 % of positive control
10,B10,6 % of positive control
11,B11,4 % of positive control
12,B12,0 % of positive control
13,B13,3 % of positive control
14,B14,6 % of positive control
15,B15,0 % of positive control
16,B16,1 % of positive control
17,B17,9 % of positive control

# Target: T3, MHC class I molecule A*0301 (biotin (bound to streptavidin-coated plate))
# T3 construct: iTopia monomer stripped of placeholder peptide and b2M, then reconstituted with test peptide and fresh b2M; also called A3; HLA-A3
# Assay: iTopia peptide binding assay
# Experimental: as §1, §2
row,Binder,"binding, % of positive control peptide"
1,B1,8 % of positive control
2,B2,3 % of positive control
3,B3,4 % of positive control
4,B4,4 % of positive control
5,B5,3 % of positive control
6,B6,0 % of positive control
7,B7,4 % of positive control
8,B8,16 % of positive control
9,B9,6 % of positive control
10,B10,4 % of positive control
11,B11,3 % of positive control
12,B12,0 % of positive control
13,B13,2 % of positive control
14,B14,5 % of positive control
15,B15,3 % of positive control
16,B16,3 % of positive control
17,B17,1 % of positive control

# Target: T4, MHC class I molecule B*0702 (biotin (bound to streptavidin-coated plate))
# T4 construct: iTopia monomer stripped of placeholder peptide and b2M, then reconstituted with test peptide and fresh b2M; also called B7; HLA-B7
# Assay: iTopia peptide binding assay
# Experimental: as §1, §2
row,Binder,"binding, % of positive control peptide"
1,B1,6 % of positive control
2,B2,10 % of positive control
3,B3,3 % of positive control
4,B4,3 % of positive control
5,B5,0 % of positive control
6,B6,0 % of positive control
7,B7,8 % of positive control
8,B8,4 % of positive control
9,B9,4 % of positive control
10,B10,13 % of positive control
11,B11,5 % of positive control
12,B12,0 % of positive control
13,B13,2 % of positive control
14,B14,3 % of positive control
15,B15,0 % of positive control
16,B16,1 % of positive control
17,B17,0 % of positive control

# Reference: US20090280138A1 (OXFORD BIOMEDICA UK, published 2009)
